In publication PMC4782999, “The Inhibitory Effect of Non-Substrate and Substrate DNA on the Ligation and Self-Adenylylation Reactions Catalyzed by T4 DNA Ligase”:

T1: T4 DNA ligase (UniProt P00970 1-487)
T1 sequence: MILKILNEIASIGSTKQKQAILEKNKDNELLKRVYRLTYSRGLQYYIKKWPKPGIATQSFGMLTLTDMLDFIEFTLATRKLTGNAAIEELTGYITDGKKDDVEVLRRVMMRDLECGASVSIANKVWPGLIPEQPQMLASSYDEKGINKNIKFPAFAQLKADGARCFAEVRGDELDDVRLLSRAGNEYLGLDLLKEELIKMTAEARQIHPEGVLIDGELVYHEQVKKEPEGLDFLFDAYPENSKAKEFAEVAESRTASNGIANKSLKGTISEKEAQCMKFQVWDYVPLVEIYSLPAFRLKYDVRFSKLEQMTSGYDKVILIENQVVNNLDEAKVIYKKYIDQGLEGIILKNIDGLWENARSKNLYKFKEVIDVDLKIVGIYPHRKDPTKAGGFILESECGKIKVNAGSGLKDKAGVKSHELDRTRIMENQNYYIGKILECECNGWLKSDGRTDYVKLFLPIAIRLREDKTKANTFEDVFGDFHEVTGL


Assays:
Details in all cases: protein: commercial; blunt, no nick
[1] = biological target: T1, T4 DNA ligase; assay: competition (nick-ligation inhibition); Ki x N sites; per binding site, N~100, assumed 24 bp footprint; derived from the Ki; EMSA: 50 mM Tris pH 7.5, 5 mM DTT, 5 mM Mg2+, 1 mM sodium pyrophosphate, 5% glycerol, room temperature (22 C), 20 min; ligation competition: 50 mM Tris-HCl pH 7.5, 1 mM ATP, 10 mM MgCl2, 10 mM DTT, 16 C
[2] = biological target: T1, T4 DNA ligase; assay: competition (nick-ligation inhibition, competitive fit); 20 nM FAM-labeled nicked substrate, 25 pM ligase, 1 mM ATP, 10 mM Mg2+, 16 C; EMSA: 50 mM Tris pH 7.5, 5 mM DTT, 5 mM Mg2+, 1 mM sodium pyrophosphate, 5% glycerol, room temperature (22 C), 20 min; ligation competition: 50 mM Tris-HCl pH 7.5, 1 mM ATP, 10 mM MgCl2, 10 mM DTT, 16 C
[3] = biological target: T1, T4 DNA ligase; assay: competition (nick-ligation inhibition); Ki x N sites; per binding site, N=34, assumed 24 bp footprint; derived from the Ki; EMSA: 50 mM Tris pH 7.5, 5 mM DTT, 5 mM Mg2+, 1 mM sodium pyrophosphate, 5% glycerol, room temperature (22 C), 20 min; ligation competition: 50 mM Tris-HCl pH 7.5, 1 mM ATP, 10 mM MgCl2, 10 mM DTT, 16 C
[4] = biological target: T1, T4 DNA ligase; assay: competition (nick-ligation inhibition, competitive fit); 1 mM ATP, 10 mM Mg2+; EMSA: 50 mM Tris pH 7.5, 5 mM DTT, 5 mM Mg2+, 1 mM sodium pyrophosphate, 5% glycerol, room temperature (22 C), 20 min; ligation competition: 50 mM Tris-HCl pH 7.5, 1 mM ATP, 10 mM MgCl2, 10 mM DTT, 16 C

Row | Binder | Kd [1] | Ki [2] | Kd [3] | Ki [4]
1 | I-75-dsDNA (dsDNA) DNA 1: AGAGAAGATGACTACTGAGTTGTGCGATCCCTGCACTTCAGCTAAGGAAGCTACCAATATTTAGTTTCCGAGTCT DNA 2: AGACTCGGAAACTAAATATTGGTAGCTTCCTTAGCTGAAGTGCAGGGATCGCACAACTCAGTAGTCATCTTCTCT | 10 ± 2 µM | 0.1 ± 0.02 µM | – | –
2 | I-40-dsDNA (dsDNA) DNA 1: CACATATGAGAAGGTATTTGCCCGATAATCAATACTCCAG DNA 2: CTGGAGTATTGATTATCGGGCAAATACCTTCTCATATGTG | – | – | 7 ± 1 µM | 0.2 ± 0.03 µM
